In patent US20120114682A1 (GEORGIA TECH RESEARCH, published 2012):

What was measured:
[1] = target: T1, Fibrinogen fragment D (human, UniProt P02671 130-216; P02675 164-491; P02679 114-432, limits assumed); assay: SPR (Biacore 2000), fragment D immobilised, equilibrium response fit to a single-site model
T1 construct: domain: Fragment D (or D-domain); Made by plasmin digestion of human fibrinogen and purified on GPRPAA beads; holds the C-terminal polymerization pockets without the N-terminal knobs; immobilised by amine coupling on the SPR chip; also called D-domain
T1 sequence (looked up) 1: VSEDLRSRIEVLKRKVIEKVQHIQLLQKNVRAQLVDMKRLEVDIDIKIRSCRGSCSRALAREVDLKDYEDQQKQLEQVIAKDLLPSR
T1 sequence (looked up) 2: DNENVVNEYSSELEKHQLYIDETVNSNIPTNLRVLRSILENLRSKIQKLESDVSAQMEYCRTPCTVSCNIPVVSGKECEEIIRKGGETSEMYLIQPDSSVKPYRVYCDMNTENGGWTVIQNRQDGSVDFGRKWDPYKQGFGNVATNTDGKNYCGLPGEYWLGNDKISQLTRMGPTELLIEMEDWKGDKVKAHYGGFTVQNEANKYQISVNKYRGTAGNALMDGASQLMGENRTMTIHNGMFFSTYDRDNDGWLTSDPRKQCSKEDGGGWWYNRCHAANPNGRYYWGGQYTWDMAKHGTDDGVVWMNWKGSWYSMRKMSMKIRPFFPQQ
T1 sequence (looked up) 3: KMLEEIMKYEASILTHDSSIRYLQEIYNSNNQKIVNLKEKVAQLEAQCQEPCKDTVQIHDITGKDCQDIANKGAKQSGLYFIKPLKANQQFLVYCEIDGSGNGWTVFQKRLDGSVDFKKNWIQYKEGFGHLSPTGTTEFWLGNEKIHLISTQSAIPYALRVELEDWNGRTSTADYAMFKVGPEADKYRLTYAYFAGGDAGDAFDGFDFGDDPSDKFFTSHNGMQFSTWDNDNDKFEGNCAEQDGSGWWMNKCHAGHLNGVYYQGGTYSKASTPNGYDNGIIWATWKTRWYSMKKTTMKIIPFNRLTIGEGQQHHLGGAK

[2] = target: Fibrin matrix (clot) (human) (UniProt P02671); assay: confocal colocalisation, perfused fibrin clot, 10 min
[3] = target: Fibrin matrix (clot) (human) (UniProt P02671); assay: confocal colocalisation, perfused fibrin clot, 30 min
[4] = target: Fibrin matrix (clot) (human) (UniProt P02671); assay: confocal colocalisation, perfused fibrin clot, 20 min
[5] = target: Fibrin matrix (clot) (human) (UniProt P02671); assay: confocal colocalisation, perfused fibrin clot, 0 min
[6] = target: T1, Fibrinogen fragment D; assay: SPR, fragment D immobilised, competitor soluble GPRP peptide in the analyte solution
[7] = target: Human fibrinogen (human) (UniProt P02671); assay: competition ELISA: soluble peptide added to fibrinogen, binding of fibrinogen to immobilised GPRP-FnIII9-10-C is measured; signal normalised to the GSPE peptide
[8] = target: T1, Fibrinogen fragment D; assay: SPR (Biacore 2000), fragment D immobilised, Langmuir 1:1 model
Method: (§1) Upon stabilization of the baseline signal, kinetic binding experiments were run in duplicate with the peptide variants as the flow analytes. Five varying concentrations for each peptide (0.94 μM to 150 μM) were flowed at 25 μL/min for 4 min immediately followed by a 10 min dissociation phase. Between each run, the surface was regenerated with 1M sodium bromide and 50 mM sodium acetate (pH 6.0). SPR experiments were performed three times with varying peptide injection order to rule out binding trends associated with injection sequence. Peptide solutions were incubated with tris(2-carboxyethyl)phosphine (TCEP) immobilized on agarose beads (Thermo Fisher Scientific, Inc; Rockland, Ill.) to ensure reduction of any disulfide bonds between C-terminal cysteines.
(§2) To investigate the dynamic binding profile between the fibrinogen/fibrin holes and knob peptide variants, SPR was employed. Binding interactions were evaluated by flowing the knob peptides over an immobilized surface of fragment D (FIG. 8). By immobilizing fragment D as opposed to full-length fibrinogen, the kinetic binding model was simplified to a heterogeneous 2-site ligand model (i.e. one hole ‘a’ and hole ‘b’ per ligand) as opposed to a 4-site model (i.e. two of each hole ‘a’ and hole ‘b’ per ligand). The data was modeled using both a Langmuir 1:1 model and a heterogeneous ligand model to compare previously established binding affinities to a more dynamic two-site model. However, the complexity of the heterogeneous model fitted parameters for sites 1 and 2 (i.e. maximal binding response, kₐ, and kd) limits direct designation or assignment of holes ‘a’ or ‘b’ to site 1 or 2. […] All peptide SPR data was fit except for the negative control peptide, GPSPAAC (SEQ ID NO:9), where minimal binding response was observed.

[9] = target: T1, Fibrinogen fragment D; assay: SPR, fragment D immobilised, heterogeneous ligand model, site 1
Method: as §1, §2

[10] = target: T1, Fibrinogen fragment D; assay: SPR, fragment D immobilised, heterogeneous ligand model, site 1 (ka1)
Method: as §1, §2

[11] = target: T1, Fibrinogen fragment D; assay: SPR, heterogeneous ligand model, site 1 (KD1 = kd/ka)
Method: as §1, §2

[12] = target: T1, Fibrinogen fragment D; assay: SPR, fragment D immobilised, heterogeneous ligand model, site 2 (kd2)
Method: as §1, §2

[13] = target: T1, Fibrinogen fragment D; assay: SPR, fragment D immobilised, Langmuir 1:1 model
Method: as §1, §2

[14] = target: T1, Fibrinogen fragment D; assay: SPR, heterogeneous ligand model, site 2 (KD2 = kd/ka)
Method: as §1, §2

[15] = target: T1, Fibrinogen fragment D; assay: SPR, fragment D immobilised, heterogeneous ligand model, site 1 (kd1)
Method: as §1, §2

[16] = target: T1, Fibrinogen fragment D; assay: SPR, fragment D immobilised, heterogeneous ligand model, site 2
Method: as §1, §2

[17] = target: T1, Fibrinogen fragment D; assay: SPR maximal binding response against peptide concentration, fibrinogen fragment D immobilised
Method: as §1
Prior to analysis, all sensorgrams were inspected for abnormalities (i.e. baseline drift, air spikes, or irregular deviations) and excluded. Reference cell responses were subtracted from corresponding active response curves. […] The resulting curves were then analyzed and fitted to the kinetic models. Kinetic modeling and simulations were performed with ClampXP software using the Langmuir 1:1 model or the heterogeneous ligand model; globally fitted parameters were determined for each kinetic data set per peptide. Equilibrium binding constants were calculated from fitted kinetic constants.

[18] = target: T1, Fibrinogen fragment D; assay: SPR, fragment D immobilised, heterogeneous ligand model, site 2 (ka2)
Method: as §1
To investigate the dynamic binding profile between the fibrinogen/fibrin holes and knob peptide variants, SPR was employed. Binding interactions were evaluated by flowing the knob peptides over an immobilized surface of fragment D (FIG. 8). By immobilizing fragment D as opposed to full-length fibrinogen, the kinetic binding model was simplified to a heterogeneous 2-site ligand model (i.e. one hole ‘a’ and hole ‘b’ per ligand) as opposed to a 4-site model (i.e. two of each hole ‘a’ and hole ‘b’ per ligand). […]

Fibrin matrix (clot) (human), sequence (P02671 36-629 limits assumed, chain 1 of 2): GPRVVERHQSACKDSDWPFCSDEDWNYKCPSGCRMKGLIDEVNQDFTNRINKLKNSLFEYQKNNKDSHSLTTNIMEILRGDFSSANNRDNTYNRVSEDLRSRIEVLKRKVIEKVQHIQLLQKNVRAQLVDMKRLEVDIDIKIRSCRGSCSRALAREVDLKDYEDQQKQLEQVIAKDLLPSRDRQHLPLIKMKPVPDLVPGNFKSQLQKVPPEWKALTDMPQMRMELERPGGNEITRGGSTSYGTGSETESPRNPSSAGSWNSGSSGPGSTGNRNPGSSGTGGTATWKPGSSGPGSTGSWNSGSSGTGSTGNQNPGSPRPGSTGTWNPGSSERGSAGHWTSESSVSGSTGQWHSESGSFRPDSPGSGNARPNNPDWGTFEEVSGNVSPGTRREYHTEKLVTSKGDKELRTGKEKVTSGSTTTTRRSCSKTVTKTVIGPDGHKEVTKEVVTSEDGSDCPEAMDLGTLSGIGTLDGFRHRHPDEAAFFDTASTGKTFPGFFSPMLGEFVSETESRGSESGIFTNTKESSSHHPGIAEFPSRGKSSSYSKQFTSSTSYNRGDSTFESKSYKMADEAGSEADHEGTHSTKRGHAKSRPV
Fibrin matrix (clot) (human), sequence (P02679 other isoform, or with tags, fused parts or gaps limits assumed, chain 3 of 2, further chain): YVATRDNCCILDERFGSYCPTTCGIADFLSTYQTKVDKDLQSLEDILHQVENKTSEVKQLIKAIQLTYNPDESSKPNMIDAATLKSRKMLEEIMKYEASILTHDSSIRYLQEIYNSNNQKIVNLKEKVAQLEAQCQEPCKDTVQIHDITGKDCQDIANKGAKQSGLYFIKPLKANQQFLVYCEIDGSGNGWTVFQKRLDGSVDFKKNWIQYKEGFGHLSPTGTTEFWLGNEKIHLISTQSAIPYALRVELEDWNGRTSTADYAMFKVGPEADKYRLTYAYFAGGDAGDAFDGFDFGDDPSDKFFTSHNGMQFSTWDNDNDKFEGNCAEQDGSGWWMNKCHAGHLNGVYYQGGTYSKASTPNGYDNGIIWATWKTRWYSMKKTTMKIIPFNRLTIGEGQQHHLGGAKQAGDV

GPRV-FnIII9-10 (from UniProt P02751 1448-1631)
Kd [1]: 125 µM

GPRP-FnIII9-10-AF633 (from UniProt P02751 1448-1631)
Colocalization Coefficient (Fibrin) [2]: 0.325
Colocalization Coefficient (GPRP-Fn) [2]: 0.956
Correlation Coefficient (R) [2]: 0.19
Mean Intensity (GPRP-Fn) [2]: 55
Relative Area of Colocalization [2]: 28.5%
Colocalization Coefficient (Fibrin) [3]: 0.159
Colocalization Coefficient (GPRP-Fn) [3]: 0.926
Correlation Coefficient (R) [3]: 0.11
Mean Intensity (GPRP-Fn) [3]: 51
Relative Area of Colocalization [3]: 12.8%
Colocalization Coefficient (Fibrin) [4]: 0.219
Colocalization Coefficient (GPRP-Fn) [4]: 0.948
Correlation Coefficient (R) [4]: 0.14
Mean Intensity (GPRP-Fn) [4]: 52
Relative Area of Colocalization [4]: 19.1%
Colocalization Coefficient (Fibrin) [5]: 0.981
Colocalization Coefficient (GPRP-Fn) [5]: 0.965
Correlation Coefficient (R) [5]: 0.47
Mean Intensity (GPRP-Fn) [5]: 100
Relative Area of Colocalization [5]: 94.2%

GSPE-FnIII9-10-AF633 (from UniProt P02751 1448-1631)
Colocalization Coefficient (Fibrin) [2]: 0.001
Colocalization Coefficient (GSPE-Fn) [2]: 0.521
Correlation Coefficient (R) [2]: -0.06
Mean Intensity (GSPE-Fn) [2]: 45
Relative Area of Colocalization [2]: 0%
Colocalization Coefficient (Fibrin) [3]: 0.003
Colocalization Coefficient (GSPE-Fn) [3]: 0.377
Correlation Coefficient (R) [3]: -0.02
Mean Intensity (GSPE-Fn) [3]: 38
Relative Area of Colocalization [3]: 0.1%
Colocalization Coefficient (Fibrin) [4]: 0.003
Colocalization Coefficient (GSPE-Fn) [4]: 0.0413
Correlation Coefficient (R) [4]: 0.02
Mean Intensity (GSPE-Fn) [4]: 44
Relative Area of Colocalization [4]: 0.1%
Colocalization Coefficient (Fibrin) [5]: 0.01
Colocalization Coefficient (GSPE-Fn) [5]: 0.739
Correlation Coefficient (R) [5]: 0.04
Mean Intensity (GSPE-Fn) [5]: 46
Relative Area of Colocalization [5]: 0.6%

GPRP-FnIII9-10 (from UniProt P02751 1448-1631)
KD in the presence of a 10-molar excess of soluble GPRP peptide [6]: 43 µM
Kd [1]: 3 µM

GPRV [GPRV tetrapeptide]
IC50 (read off the curve) [7]: 200 µg/mL

B1: GPRPAAC (peptide)
peptide: GPRPAAC
notes: Synthetic (GenScript); kept reduced with immobilised TCEP; also called gold standard GPRP mimic; knob 'A' peptide
Bmax (maximal binding capacity of fragment D) [8]: 21.5 RU
Bmax (maximal binding capacity of fragment D, site 1) [9]: 19.4 RU
kon [10]: 2840 M⁻¹ s⁻¹
Kd [11]: 4.53 µM
koff [12]: 0.00895 s⁻¹
koff [13]: 0.0117 s⁻¹
kon [13]: 1140 M⁻¹ s⁻¹
Kd [14]: 8.52 µM
koff [15]: 0.0128 s⁻¹
B*max (maximal binding capacity of fragment D, site 2) [16]: 5.91 RU

B2: GPSPAAC (peptide)
peptide: GPSPAAC
notes: Synthetic (GenScript); negative control; also called negative control peptide
binding result [17]: no binding (tested: just below 10^-4 M (last point))

B3: GPRPFPAC (peptide)
peptide: GPRPFPAC
notes: Synthetic (GenScript); also called knob 'A' peptide
Bmax (maximal binding capacity of fragment D) [8]: 17.7 RU
Bmax (maximal binding capacity of fragment D, site 1) [9]: 17.6 RU
kon [10]: 21700 M⁻¹ s⁻¹
Kd [11]: 3.73 µM
koff [12]: 0.00196 s⁻¹
koff [13]: 0.00727 s⁻¹
kon [13]: 12500 M⁻¹ s⁻¹
Kd [14]: 1.08 µM
koff [15]: 0.0811 s⁻¹
B*max (maximal binding capacity of fragment D, site 2) [16]: 11.3 RU
kon [18]: 1810 M⁻¹ s⁻¹

B4: GPRPPERC (peptide)
peptide: GPRPPERC
notes: as for B3
Bmax (maximal binding capacity of fragment D) [8]: 19.2 RU
Bmax (maximal binding capacity of fragment D, site 1) [9]: 14.6 RU
kon [10]: 3220 M⁻¹ s⁻¹
Kd [11]: 18.2 µM
koff [12]: 0.00296 s⁻¹
koff [13]: 0.00992 s⁻¹
kon [13]: 1290 M⁻¹ s⁻¹
Kd [14]: 2.93 µM
koff [15]: 0.0587 s⁻¹
B*max (maximal binding capacity of fragment D, site 2) [16]: 5.92 RU

B5: GPRVVERC (peptide)
peptide: GPRVVERC
notes: as for B3
Bmax (maximal binding capacity of fragment D) [8]: 16.3 RU
Bmax (maximal binding capacity of fragment D, site 1) [9]: 25.6 RU
Kd [11]: 53.9 µM
koff [12]: 0.00407 s⁻¹
koff [13]: 0.0234 s⁻¹
kon [13]: 280 M⁻¹ s⁻¹
Kd [14]: 15.7 µM
koff [15]: 0.0577 s⁻¹
B*max (maximal binding capacity of fragment D, site 2) [16]: 10.3 RU
kon [18]: 260 M⁻¹ s⁻¹

B6: GPRVVAAC (peptide)
peptide: GPRVVAAC
notes: as for B3
Bmax (maximal binding capacity of fragment D) [8]: 18.9 RU
Bmax (maximal binding capacity of fragment D, site 1) [9]: 8.36 RU
kon [10]: 620 M⁻¹ s⁻¹
Kd [11]: 48.5 µM
koff [12]: 0.001 s⁻¹
koff [13]: 0.0107 s⁻¹
Kd [14]: 25 µM
koff [15]: 0.0301 s⁻¹
B*max (maximal binding capacity of fragment D, site 2) [16]: 13.5 RU
